Experimental data as given in PMC3173608, “Atomic Resolution Insights into Curli Fiber Biogenesis” (Structure(London, England:1993), 2011).
Values joined by “and” are separate entries in the source; they are usually repeats but may differ in a detail not shown here. Identical values can stand only once.

Biological target: the molecule itself
Assay: SEC + native gel or EMSA

B1: CsgG-6xHis (natural protein)
chain: CLTAPPKEAARPTLMPRAQSYKDLTHLPAPTGKIFVSVYNIQDETGQFKPYPASNFSTAVPQSATAMLVTALKDSRWFIPLERQGLQNLLNERKIIRAAQENGTVAINNRIPLQSLTAANIMVEGSIIGYESNVKSGGVGARYFGIGADTQYQLDQIAVNLRVVNVSTGEILSSVNTSKTILSYEVQAGVFRFIDYQRLLEGEVGYTSNEPVMLCLMSAIETGVIFLINDGIDRGLWDLQNKAERQNDILVKYRHMSVPPES
modifications: C16 becomes the lipidated N terminus of the mature protein (said of CsgG in general)
notes: also called recombinant CsgG-6xHis; protein-detergent complex; not shown: His6, C-terminal, kept
Question: Which “stoichiometry N” value does the source give for B1 here?
Answer: 7 protomers and 9 protomers
